The supplement of paper PMC9732359
± gives the uncertainty stated by the source.

Assay: protein stability index of a GFP-peptide fusion (yeast GPS) (PSI 1-4); higher = more stable; sorted into four equal gates, so the index is relative within each strain
Conditions: pdr5∆
In short: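 Sequencing reads from sorted gates were used to score each peptide. The library consisted of tiled 17-residue yeast protein peptides fused downstream of GFP on a Cherry-expressing plasmid, pooled and carried in yeast. Mid-log cultures in leucine-free medium were split into four equal gates by GFP/Cherry ratio, and each gate's plasmids were PCR-amplified and Illumina-sequenced. The protein stability index adds up, over all gates, the read frequency multiplied by the gate number.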

| Sequence | protein stability index |
| --- | --- |
| NEKFEIELLSLDDDSIV [SRB4] | 3.07 ± 0.093 |
| NEQLTLLSKKHGQLKLS [RPN5] | 2.34 ± 0.062 |
| NEWIKAQEDVPYLLPYI [QCR7] | 2.46 ± 0.078 |
| NEYRLAFYQVTPEEDEE [RPL22A] | 2.61 ± 0.071 |
| NFARQLLFNNDFPLLKV [RRP40] | 2.02 ± 0.049 |
| NFGGGNNTTPSSTGNAN [YJL041W/NSP1] | 2.02 ± 0.055 |
| NFHNSKKRMNSNQERCH [RRI1] | 2.51 ± 0.057 |
| NFKDMSHVNKYGLIRGL [PRP8] | 1.47 ± 0.067 |
| NFLQESYEVEHVIQIPL [TAF14] | 2.94 ± 0.092 |
| NFPDEDDDDSRKSAPVD [SKP1] | 3.2 ± 0.047 |
| NFTCNRKILNFKKDLVI [SWI1] | 2.88 ± 0.063 |
| NFYLKRFISDLLWLVLI [SWI1] | 1.88 ± 0.065 |
| NGAFQNSSNLSYNNTGI [RRP4] | 2.85 ± 0.053 |
| NGEEDEVALFSQKAKLM [YLR335W/NUP2] | 1.16 ± 0.13 |
| NGERKFLKEKDTVAELQ [FAS2] | 3.38 ± 0.23 |
| NGNKDSSFNFNKNLPFV [SWI1] | 3.38 ± 0.068 |
| NHMLIDSLNQLEIRNKI [RGR1] | 3.04 ± 0.069 |
| NHNKTKLLKSLKNTKYF [PRP8] | 1.83 ± 0.052 |
| NHTAHNQTRKAHRNGIK [RPL29] | 2.56 ± 0.059 |
| NIDYQKGLLIWRLLFID [GRR1] | 1.28 ± 0.063 |
| NIGETAGVVQDIGSDPT [RPB9] | 3.25 ± 0.085 |
| NILIASLMDTLITPAVR [YCG1] | 1.91 ± 0.073 |
| NILLRERDSYKLLASTE [YIL149C/MLP2] | 2.53 ± 0.055 |
| NILNMSMNNDFQQQQQQ [PGD1] | 3.04 ± 0.084 |
| NINATNTSVLMKLKLMI [YCS4] | 1.5 ± 0.079 |
| NIQGITKPAIRRLARRG [HHF1] | 3.24 ± 0.093 |

| Sequence | protein stability index |
| --- | --- |
| NIQHLLYGKRFFPYYVH [PRE7] | 1.45 ± 0.037 |
| NISGEFFRNKLKYHDFL [RPL16B] | 2.18 ± 0.068 |
| NISIITLELESFLEGSK [RGR1] | 2.48 ± 0.059 |
| NISSSQQLLPAPQLFPY [DSN1] | 2.71 ± 0.097 |
| NIVHNFKERQMMVSYPK [AAR2] | 2.33 ± 0.1 |
| NKDSIEECGRTIHRSFT [CSN12] | 3.13 ± 0.066 |
| NKEGTLEQREQNENLPS [SSN2] | 3.06 ± 0.074 |
| NKGELETQPGCNEEQTL [RPO31] | 3.38 ± 0.12 |
| NKGLVVSPYDYNHKRVS [DIB1] | 2.41 ± 0.066 |
| NKIKLNILKILSSLILK [SRB8] | 1.73 ± 0.074 |
| NKLFTEPIKLEPVKEYT [YMR129W/POM152] | 2.39 ± 0.06 |
| NKLLGNVTIAQGGVLPN [HTA1] | 1.66 ± 0.041 |
| NKLTGKQIVFEIPSETH [RPS7A] | 2.95 ± 0.091 |
| NKLTGKQIVFEIPSQTN [RPS7B] | 3.06 ± 0.13 |
| NKLVMKSKFNKSNRSYS [GAL11] | 2.99 ± 0.099 |
| NKNQLLKRNRIRNARSI [POP1] | 3.1 ± 0.071 |
| NKPAIKEDSTIQDSNGD [SWI3] | 3.05 ± 0.073 |
| NKQSVSNLSPDLKFKRH [DSN1] | 2.61 ± 0.22 |
| NKSFIVDQGQIYRDRST [ITC1] | 3.35 ± 0.12 |
| NKTLTFETETEVTFKNA [FAS1] | 3.23 ± 0.093 |
| NKVCRIEAASTTQDQCK [RPB8] | 2.89 ± 0.07 |
| NKVSYYGNPTSKESWRY [RTT102] | 3.19 ± 0.13 |
| NLDGTKAVKLRKSYKNQ [ROX3] | 3.36 ± 0.096 |
| NLKVELKEQSEQLKEQM [SMC4] | 3.2 ± 0.067 |
| NLLCYYNLRSLNLINAK [RPN3] | 1.71 ± 0.06 |
| NLLIQRLNFNQNSSKIV [SWI3] | 2.81 ± 0.051 |

| Sequence | protein stability index |
| --- | --- |
| NLMGNRNNHNSNTSTSK [SNF12] | 3.17 ± 0.096 |
| NLNDKFGIYILTQGING [MED1] | 1.47 ± 0.032 |
| NLQAKPLVGKPKTELTK [YAR002W/NUP60] | 2.52 ± 0.067 |
| NLQGDLQAIQEKLNKTD [ITC1] | 3.33 ± 0.21 |
| NLQIRQLFNWCLMRSLH [DSN1] | 1.19 ± 0.061 |
| NLRKSRGMLGLLEPPAK [RPO31] | 1.18 ± 0.21 |
| NLSLYEATAASHERFFL [CSN12] | 2.73 ± 0.072 |
| NLSSLIVEINNVSNTFN [YJL041W/NSP1] | 2.72 ± 0.046 |
| NLTYYNEKLECISLGST [ITC1] | 2.39 ± 0.044 |
| NLVSLLIIVTRKNYMHV [YML031W/NDC1] | 1.22 ± 0.039 |
| NNDLESVSMLLQYYILE [RRI2] | 3.16 ± 0.049 |
| NNESSDDMDIDEVNDRS [PCI8] | 3.17 ± 0.072 |
| NNGNNSTSIQYHGISKN [POP6] | 2.51 ± 0.06 |
| NNKILEKCKEINVETVY [BRR2] | 2 ± 0.062 |
| NNKNNSITTGNDNENIV [MED2] | 2.94 ± 0.047 |
| NNNNKSINKNNKEMHTD [SSN2] | 2.99 ± 0.082 |
| NNNNNNNDDNGNNNNNN [MED2] | 3.284 ± 0.023 |
| NNNNSNNHNMRNNSNNK [SWI1] | 2.95 ± 0.031 |
| NNPLLLIVDVKQQGVGL [RPN8] | 1.87 ± 0.1 |
| NNRQLPYLVANVVEVMD [RPT5] | 2.78 ± 0.07 |
| NNSEQDQEIVIQQLHSV [ISW2] | 2.59 ± 0.071 |
| NNSLSYHSGRLLIQGPK [ITC1] | 2.3 ± 0.048 |
| NNSNSNNNDNNNSNTVA [SWI1] | 3.14 ± 0.051 |
| NNTTPSSTGNANTSNNL [YJL041W/NSP1] | 3.29 ± 0.08 |
| NNYKDLLAVAIAASYHY [RPP0] | 1.95 ± 0.12 |
| NPDDLMKAVRKVAEVKK [RPT4] | 3.4 ± 0.25 |

| Sequence | protein stability index |
| --- | --- |
| NPNSTAITADLGSSEAE [YGL172W/NUP49] | 2.4 ± 0.14 |
| NPRKRAIPNSIIKRSNG [YMR153W/NUP53] | 2.7 ± 0.1 |
| NPTKSKEILDNILPFLW [ECM29] | 2.97 ± 0.1 |
| NPYSSYVSQIRKHKRVS [YAR002W/NUP60] | 1.88 ± 0.05 |
| NQGVNELKYQRSLRATA [RPL15A] | 1.42 ± 0.086 |
| NQINSFWSLHSSTYYNL [NUT1] | 1.75 ± 0.049 |
| NQKTSAVAALTEVRAED [RPL8A] | 2.94 ± 0.071 |
| NQLVEPNRIKLSKEVPF [SRB5] | 2.44 ± 0.037 |
| NQMGMGTNNGMSMGGGV [YOR098C/NUP1] | 3.15 ± 0.17 |
| NQNTLKEISARRYKLLT [POP1] | 2.35 ± 0.045 |
| NQQQQQQQQQQQQRRQL [GAL11] | 2.9 ± 0.063 |
| NQSSFNFGNNGAGGLNP [YOR098C/NUP1] | 3.1 ± 0.076 |
| NQTIKEAKDAIIELENI [YIL149C/MLP2] | 3.2 ± 0.07 |
| NRTLYELADLPKLKRIG [GRR1] | 2.87 ± 0.037 |
| NRVGLTLDNIDDINKAK [ARP9] | 2.93 ± 0.051 |
| NSADVDMDAQGRSDSNT [YGL100W/SEH1] | 3.39 ± 0.088 |
| NSEISNLPKDKSGIPEF [SSN2] | 3 ± 0.11 |
| NSEYLKRRVTNLEFNYT [SMC2] | 2.27 ± 0.1 |
| NSIDSTSRIELELKNIG [ECM29] | 3.15 ± 0.062 |
| NSIESKNLSLQTGTKPV [COR1] | 2.84 ± 0.053 |
| NSIWGSSLRKNASGNKR [ITC1] | 2.12 ± 0.097 |
| NSLLLDSTPEEVSCKLL [YML103C/NUP188] | 3.16 ± 0.08 |
| NSLSSNLSSLIVEINNV [YJL041W/NSP1] | 2.58 ± 0.045 |
| NSQLVGKPHFSLLGGFD [PCI8] | 2.33 ± 0.09 |
| NSSNLSYNNTGISDDEN [RRP4] | 2.87 ± 0.064 |
